Measured values taken from US7208311B2, “Catalytic domain of ADAM33 and methods of use thereof” (Schering Corporation, priority 2002, dated 2007).

T1: ADAM33 (Homo sapiens, UniProt Q9BZ11)
T1 construct: made in house; host or cells: Drosophila melanogaster S2 cells
T1 sequence (Q9BZ11 204-409 limits assumed): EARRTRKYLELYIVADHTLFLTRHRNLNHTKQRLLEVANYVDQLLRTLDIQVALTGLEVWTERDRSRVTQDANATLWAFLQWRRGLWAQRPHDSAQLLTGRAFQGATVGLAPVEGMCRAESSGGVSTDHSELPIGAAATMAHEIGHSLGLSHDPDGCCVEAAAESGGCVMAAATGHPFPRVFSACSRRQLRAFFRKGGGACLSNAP


Assays:
ADAM33 [1] = biological target: T1, ADAM33; assay: HPLC inhibition assay, ADAM33cat with KL-1 peptide substrate; format: biochemical; conditions: at 2 µM
Experimental: The inhibition dissociation constants (Ki) for inhibitors were determined as follows: an HPLC assay was performed in the presence or absence of inhibitors for 2 h at RT using ADAM33cat (80 nM) and KL-1 peptide substrate (100 μM). For testing tissue inhibitor of metalloproteinases (TIMPs), ADAM33 and human TIMPs were pre-incubated for 1 h at RT. […] Initial velocities were calculated by dividing cleaved product over reaction time. The initial velocities were plotted as a function of inhibitor concentration. For tight binding inhibitors (IK682, TIMP-3), the apparent inhibitor dissociation constants (Ki app values) were calculated by fitting the curve to the following modified Morrison's equation: vi=vo{[(Eo−Io−Ki^app)^2+4 Ki^appEo]^1/2+(Eo−IoKI^app)}/2Eo where Ki^app=Ki(1+S/Km), vo is the uninhibited initial velocity, vi is the initial velocity in the presence of inhibitor at any given inhibitor concentration Io, and Eo is initial enzyme concentration. When the substrate concentration S<<Km, Ki^app is approximately equal to Ki.

human ADAM17 = human ADAM17 (Homo sapiens, UniProt P78536); assay: Inhibition of human ADAM17 by human TIMPs, fluorogenic pro-TNF-alpha substrate; format: biochemical; conditions: ADAM17 1 nM, substrate 25 μM
Experimental: Inhibition of human ADAM17 by human TIMPs was determined as follows: ADAM17 (1 nM) was pre-incubated with serial dilutions of TIMP-1 (0–4 μM), TIMP-2 (0–1 μM), TIMP-3 (0–0.2 μM), or TIMP-4 (0–4 μM), in assay buffer (25 mM HEPES, pH7.5, 5 mM CaCl2, 0.1 mM ZnCl2) for 1 h at RT, followed by addition of the fluorogenic pro-TNF-alpha substrate (25 μM), K(mca)SPLAQAVRSSSRK(dnp) (SEQ ID NO: 46). The reaction velocities were measured using the GEMINI fluorescence reader at 320/380 nm for 1 h and inhibition dissociation constants were calculated by fitting the data to Morrison equation (TIMP-2 and TIMP-3) or Michaelis-Menten equation (TIMP-1 and TIMP-4) as described above.

ADAM33 [2] = assay: MCF 12-mer peptide proteolysis assay (HPLC); format: biochemical, human; conditions: MCF peptide substrate
Experimental: A 12-mer peptide (i.e. Ac-LPPVAASSLNRD-NH2; SEQ ID NO: 48), derived from human mast-cell growth factor (accession number NP-038626) was synthesized as a substrate for ADAM33. Reactions were initiated by addition of 200 nM enzyme to appropriate amounts of substrate in assay buffer (25 mM HEPES, pH 7.5, 0.5 M NaCl, 0.1% n-octyl-β-D-glucoside), incubated at 22° C. for 2 h and subsequently quenched with 1% TFA. When inhibitors were evaluated, the enzyme and inhibitors were preincubated at 22° C. for 30 min prior to initiation of the assays. Substrate and products were separated by HPLC using a C-8 reverse phase column (Zobrax 3.5 μm, 4.6 mmD/5 cmL, Agilent, Palo Alto, Calif., 0.1% TFA acetonitrile/H2O). Elution was monitored at 214 nm, and peaks identified by mass spectroscopy. Initial rates of proteolysis were determined using reactions in which less than 10% of the substrate was consumed. kcat/Km values were calculated assuming the enzymes were 100% active.
Production of ADAM33 and mutants thereof were produced essentially as described in Example 1. Proteolytic assays and methods for determining catalytic rates are essentially as described in Examples 2 and 3.

human ADAM17, sequence (P78536 215-824): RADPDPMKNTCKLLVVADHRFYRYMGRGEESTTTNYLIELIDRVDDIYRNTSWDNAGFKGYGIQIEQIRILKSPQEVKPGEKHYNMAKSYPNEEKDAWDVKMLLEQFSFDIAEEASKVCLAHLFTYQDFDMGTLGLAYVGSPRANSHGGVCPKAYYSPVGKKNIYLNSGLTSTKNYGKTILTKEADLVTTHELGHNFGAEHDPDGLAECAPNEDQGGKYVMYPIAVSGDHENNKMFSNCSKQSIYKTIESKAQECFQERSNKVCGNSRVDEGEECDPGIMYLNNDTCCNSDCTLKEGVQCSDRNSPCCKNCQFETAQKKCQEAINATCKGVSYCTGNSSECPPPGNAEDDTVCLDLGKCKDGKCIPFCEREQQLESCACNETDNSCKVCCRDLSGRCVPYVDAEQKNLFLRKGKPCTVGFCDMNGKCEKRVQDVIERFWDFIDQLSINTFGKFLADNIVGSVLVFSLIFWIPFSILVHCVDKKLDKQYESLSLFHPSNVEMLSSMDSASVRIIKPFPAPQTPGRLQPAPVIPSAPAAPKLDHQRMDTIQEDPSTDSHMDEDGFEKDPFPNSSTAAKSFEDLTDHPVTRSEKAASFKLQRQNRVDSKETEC

Molecule | inhibition of ADAM33 activity (ADAM33 [1]) | inhibition of human ADAM17 activity (human ADAM17) | catalytic efficiency relative to CAT domain (ADAM33 [2])
TIMP-1: human tissue inhibitor of metalloproteinases 1, endogenous inhibitor of MMPs and ADAMs | no inhibition | weakly inhibited | –
pro-CAT single chain zymogen form: single chain zymogen form of ADAM33 (R203T/R207S; SEQ ID NO:54) (protein, homo sapiens) LQGHIPGQPVTPHWVLDGQPWRTVSLEEPVSKPDMGLVALEAEGQELLLELEKNHRLLAPGYIETHYGPDGQPVVLAPNHTDHCHYQGRVRGFPDSWVVLCTCSGMSGLITLSRNASYYLRPWPPRGSKDFSTHEIFRMEQLLTWKGTCGHRDPGNKAGMTSLPGGPQSRGRTEARSTRKYLELYIVADHTLFLTRHRNLNHTKQRLLEVANYVDQLLRTLDIQVALTGLEVWTERDRSRVTQDANATLWAFLQWRRGLWAQRPHDSAQLLTGRAFQGATVGLAPVEGMCRAESSGGVSTDHSELPIGAAATMAHEIGHSLGLSHDPDGCCVEAAAESGGCVMAAATGHPFPRVFSACSRRQLRAFFRKGGGACLSNAP | – | – | no significant difference
TIMP4: human tissue inhibitor of metalloproteinases 4, endogenous inhibitor of MMPs and ADAMs (protein) CSCAPAHPQQHICHSALVIRAKISSEKVVPASADPADTEKMLRYEIKQIKMFKGFEKVKDVQYIYTPFDSSLCGVKLEANSQKQYLLTGQVLSDGKVFIHLCNYIEPWEDLSLVQRESLNHHYHLNCGCQITTCYTVPCTISAPNECLWTDWLLERKLYGYQAQHYVCMKHVDGTCSWYRGHLPLRKEFVDIVQP | – | inhibited | –
TIMP-3: human tissue inhibitor of metalloproteinases 3, endogenous inhibitor of MMPs and ADAMs (protein) CTCSPSHPQDAFCNSDIVIRAKVVGKKLVKEGPFGTLVYTIKQMKMYRGFTKMPHVQYIHTEASESLCGLKLEVNKYQYLLTGRVYDGKMYTGLCNFVERWDQLTLSQRKGLNYRYHLGCNCKIKSCYYLPCFVTSKNECLWTDMLSNFGYPGYQSKHYACIRQKGGYCSWYRGWAPPDKSIINATDP | – | inhibited | –
